B1: Compound 81 (peptide)
peptide: Isovaleryl-APEK([Ahx-γGlu-C18 diacid])PEEDAQPEEIQRYYVSLRHYYNWLTRQRY-NH2
SMILES: CC[C@H](C)[C@H](NC(=O)[C@H](CCC(=O)O)NC(=O)[C@H](CCC(=O)O)NC(=O)[C@@H]1CCCN1C(=O)[C@H](CCC(N)=O)NC(=O)[C@H](C)NC(=O)[C@H](CC(=O)O)NC(=O)[C@H](CCC(=O)O)NC(=O)[C@H](CCC(=O)O)NC(=O)[C@@H]1CCCN1C(=O)[C@H](CCCCNC(=O)CCCCCNC(=O)CC[C@H](NC(=O)CCCCCCCCCCCCCCCCC(=O)O)C(=O)O)NC(=O)[C@H](CCC(=O)O)NC(=O)[C@@H]1CCCN1C(=O)[C@H](C)NC(=O)CC(C)C)C(=O)N[C@@H](CCC(N)=O)C(=O)N[C@@H](CCCNC(=N)N)C(=O)N[C@@H](Cc1ccc(O)cc1)C(=O)N[C@@H](Cc1ccc(O)cc1)C(=O)N[C@H](C(=O)N[C@@H](CO)C(=O)N[C@@H](CC(C)C)C(=O)N[C@@H](CCCNC(=N)N)C(=O)N[C@@H](Cc1c[nH]cn1)C(=O)N[C@@H](Cc1ccc(O)cc1)C(=O)N[C@@H](Cc1ccc(O)cc1)C(=O)N[C@@H](CC(N)=O)C(=O)N[C@@H](Cc1c[nH]c2ccccc12)C(=O)N[C@@H](CC(C)C)C(=O)N[C@H](C(=O)N[C@@H](CCCNC(=N)N)C(=O)N[C@@H](CCC(N)=O)C(=O)N[C@@H](CCCNC(=N)N)C(=O)N[C@@H](Cc1ccc(O)cc1)C(N)=O)[C@@H](C)O)C(C)C
B2: Compound 85 (peptide)
peptide: Isovaleryl-APAK([Ahx-γGlu-C18 diacid])PEEDASPEETQRYYVSLRHYYNWLTRQRY-NH2
SMILES: CC(C)CC(=O)N[C@@H](C)C(=O)N1CCC[C@H]1C(=O)N[C@@H](C)C(=O)N[C@@H](CCCCNC(=O)CCCCCNC(=O)CC[C@H](NC(=O)CCCCCCCCCCCCCCCCC(=O)O)C(=O)O)C(=O)N1CCC[C@H]1C(=O)N[C@@H](CCC(=O)O)C(=O)N[C@@H](CCC(=O)O)C(=O)N[C@@H](CC(=O)O)C(=O)N[C@@H](C)C(=O)N[C@@H](CO)C(=O)N1CCC[C@H]1C(=O)N[C@@H](CCC(=O)O)C(=O)N[C@@H](CCC(=O)O)C(=O)N[C@H](C(=O)N[C@@H](CCC(N)=O)C(=O)N[C@@H](CCCNC(=N)N)C(=O)N[C@@H](Cc1ccc(O)cc1)C(=O)N[C@@H](Cc1ccc(O)cc1)C(=O)N[C@H](C(=O)N[C@@H](CO)C(=O)N[C@@H](CC(C)C)C(=O)N[C@@H](CCCNC(=N)N)C(=O)N[C@@H](Cc1c[nH]cn1)C(=O)N[C@@H](Cc1ccc(O)cc1)C(=O)N[C@@H](Cc1ccc(O)cc1)C(=O)N[C@@H](CC(N)=O)C(=O)N[C@@H](Cc1c[nH]c2ccccc12)C(=O)N[C@@H](CC(C)C)C(=O)N[C@H](C(=O)N[C@@H](CCCNC(=N)N)C(=O)N[C@@H](CCC(N)=O)C(=O)N[C@@H](CCCNC(=N)N)C(=O)N[C@@H](Cc1ccc(O)cc1)C(N)=O)[C@@H](C)O)C(C)C)[C@@H](C)O
B3: Compound 83 (peptide)
peptide: Isovaleryl-APEK([Ahx-γGlu-C18 diacid])PEEDATSEELQRYYVSLRHYYNWLTRQRY-NH2
SMILES: CC(C)CC(=O)N[C@@H](C)C(=O)N1CCC[C@H]1C(=O)N[C@@H](CCC(=O)O)C(=O)N[C@@H](CCCCNC(=O)CCCCCNC(=O)CC[C@H](NC(=O)CCCCCCCCCCCCCCCCC(=O)O)C(=O)O)C(=O)N1CCC[C@H]1C(=O)N[C@@H](CCC(=O)O)C(=O)N[C@@H](CCC(=O)O)C(=O)N[C@@H](CC(=O)O)C(=O)N[C@@H](C)C(=O)N[C@H](C(=O)N[C@@H](CO)C(=O)N[C@@H](CCC(=O)O)C(=O)N[C@@H](CCC(=O)O)C(=O)N[C@@H](CC(C)C)C(=O)N[C@@H](CCC(N)=O)C(=O)N[C@@H](CCCNC(=N)N)C(=O)N[C@@H](Cc1ccc(O)cc1)C(=O)N[C@@H](Cc1ccc(O)cc1)C(=O)N[C@H](C(=O)N[C@@H](CO)C(=O)N[C@@H](CC(C)C)C(=O)N[C@@H](CCCNC(=N)N)C(=O)N[C@@H](Cc1c[nH]cn1)C(=O)N[C@@H](Cc1ccc(O)cc1)C(=O)N[C@@H](Cc1ccc(O)cc1)C(=O)N[C@@H](CC(N)=O)C(=O)N[C@@H](Cc1c[nH]c2ccccc12)C(=O)N[C@@H](CC(C)C)C(=O)N[C@H](C(=O)N[C@@H](CCCNC(=N)N)C(=O)N[C@@H](CCC(N)=O)C(=O)N[C@@H](CCCNC(=N)N)C(=O)N[C@@H](Cc1ccc(O)cc1)C(N)=O)[C@@H](C)O)C(C)C)[C@@H](C)O
B4: Compound 86 (peptide)
peptide: Isovaleryl-APEK([Ahx-γGlu-C18 diacid])PEEDATPEEIQRYYASLRHYYNWLTRQRY-NH2
SMILES: CC[C@H](C)[C@H](NC(=O)[C@H](CCC(=O)O)NC(=O)[C@H](CCC(=O)O)NC(=O)[C@@H]1CCCN1C(=O)[C@@H](NC(=O)[C@H](C)NC(=O)[C@H](CC(=O)O)NC(=O)[C@H](CCC(=O)O)NC(=O)[C@H](CCC(=O)O)NC(=O)[C@@H]1CCCN1C(=O)[C@H](CCCCNC(=O)CCCCCNC(=O)CC[C@H](NC(=O)CCCCCCCCCCCCCCCCC(=O)O)C(=O)O)NC(=O)[C@H](CCC(=O)O)NC(=O)[C@@H]1CCCN1C(=O)[C@H](C)NC(=O)CC(C)C)[C@@H](C)O)C(=O)N[C@@H](CCC(N)=O)C(=O)N[C@@H](CCCNC(=N)N)C(=O)N[C@@H](Cc1ccc(O)cc1)C(=O)N[C@@H](Cc1ccc(O)cc1)C(=O)N[C@@H](C)C(=O)N[C@@H](CO)C(=O)N[C@@H](CC(C)C)C(=O)N[C@@H](CCCNC(=N)N)C(=O)N[C@@H](Cc1c[nH]cn1)C(=O)N[C@@H](Cc1ccc(O)cc1)C(=O)N[C@@H](Cc1ccc(O)cc1)C(=O)N[C@@H](CC(N)=O)C(=O)N[C@@H](Cc1c[nH]c2ccccc12)C(=O)N[C@@H](CC(C)C)C(=O)N[C@H](C(=O)N[C@@H](CCCNC(=N)N)C(=O)N[C@@H](CCC(N)=O)C(=O)N[C@@H](CCCNC(=N)N)C(=O)N[C@@H](Cc1ccc(O)cc1)C(N)=O)[C@@H](C)O
B5: Compound 82 (peptide)
peptide: Isovaleryl-APAK([Ahx-γGlu-C18 diacid])PPEDASPEEIQRYYVSLRHYYNWLTRQRY-NH2
SMILES: CC[C@H](C)[C@H](NC(=O)[C@H](CCC(=O)O)NC(=O)[C@H](CCC(=O)O)NC(=O)[C@@H]1CCCN1C(=O)[C@H](CO)NC(=O)[C@H](C)NC(=O)[C@H](CC(=O)O)NC(=O)[C@H](CCC(=O)O)NC(=O)[C@@H]1CCCN1C(=O)[C@@H]1CCCN1C(=O)[C@H](CCCCNC(=O)CCCCCNC(=O)CC[C@H](NC(=O)CCCCCCCCCCCCCCCCC(=O)O)C(=O)O)NC(=O)[C@H](C)NC(=O)[C@@H]1CCCN1C(=O)[C@H](C)NC(=O)CC(C)C)C(=O)N[C@@H](CCC(N)=O)C(=O)N[C@@H](CCCNC(=N)N)C(=O)N[C@@H](Cc1ccc(O)cc1)C(=O)N[C@@H](Cc1ccc(O)cc1)C(=O)N[C@H](C(=O)N[C@@H](CO)C(=O)N[C@@H](CC(C)C)C(=O)N[C@@H](CCCNC(=N)N)C(=O)N[C@@H](Cc1c[nH]cn1)C(=O)N[C@@H](Cc1ccc(O)cc1)C(=O)N[C@@H](Cc1ccc(O)cc1)C(=O)N[C@@H](CC(N)=O)C(=O)N[C@@H](Cc1c[nH]c2ccccc12)C(=O)N[C@@H](CC(C)C)C(=O)N[C@H](C(=O)N[C@@H](CCCNC(=N)N)C(=O)N[C@@H](CCC(N)=O)C(=O)N[C@@H](CCCNC(=N)N)C(=O)N[C@@H](Cc1ccc(O)cc1)C(N)=O)[C@@H](C)O)C(C)C
B6: Compound 87 (peptide)
peptide: Isovaleryl-APEK([Ahx-γGlu-C18 diacid])PEEDATPEELQRYYVPLRHYYNWLTRQRY-NH2
SMILES: CC(C)CC(=O)N[C@@H](C)C(=O)N1CCC[C@H]1C(=O)N[C@@H](CCC(=O)O)C(=O)N[C@@H](CCCCNC(=O)CCCCCNC(=O)CC[C@H](NC(=O)CCCCCCCCCCCCCCCCC(=O)O)C(=O)O)C(=O)N1CCC[C@H]1C(=O)N[C@@H](CCC(=O)O)C(=O)N[C@@H](CCC(=O)O)C(=O)N[C@@H](CC(=O)O)C(=O)N[C@@H](C)C(=O)N[C@H](C(=O)N1CCC[C@H]1C(=O)N[C@@H](CCC(=O)O)C(=O)N[C@@H](CCC(=O)O)C(=O)N[C@@H](CC(C)C)C(=O)N[C@@H](CCC(N)=O)C(=O)N[C@@H](CCCNC(=N)N)C(=O)N[C@@H](Cc1ccc(O)cc1)C(=O)N[C@@H](Cc1ccc(O)cc1)C(=O)N[C@H](C(=O)N1CCC[C@H]1C(=O)N[C@@H](CC(C)C)C(=O)N[C@@H](CCCNC(=N)N)C(=O)N[C@@H](Cc1c[nH]cn1)C(=O)N[C@@H](Cc1ccc(O)cc1)C(=O)N[C@@H](Cc1ccc(O)cc1)C(=O)N[C@@H](CC(N)=O)C(=O)N[C@@H](Cc1c[nH]c2ccccc12)C(=O)N[C@@H](CC(C)C)C(=O)N[C@H](C(=O)N[C@@H](CCCNC(=N)N)C(=O)N[C@@H](CCC(N)=O)C(=O)N[C@@H](CCCNC(=N)N)C(=O)N[C@@H](Cc1ccc(O)cc1)C(N)=O)[C@@H](C)O)C(C)C)[C@@H](C)O

*1 amine or outer side, *2 acyl side, *3 side chain or, on linkers, in order; H or OH if unused. Side-chain parts run from the residue outwards. The star is where a group is joined. C18 diacid = O=C(O)CCCCCCCCCCCCCCCCC(=O)*; γGlu = O=C(O)[C@H](CCC(=O)[*:2])N[*:1]; Isovaleryl = CC(C)CC(=O)*; Ahx = NCCCCCC(=O)O

Ki data for six molecules are collected here from patent US20260015399A1 (Boehringer Ingelheim, published 2026).

For this assay, the target named is T1, human NPY2 receptor (human, UniProt P49146 1-381).
T1 construct: whole, on cells; also called hNPY2-R; hNPY2R
T1 sequence (looked up): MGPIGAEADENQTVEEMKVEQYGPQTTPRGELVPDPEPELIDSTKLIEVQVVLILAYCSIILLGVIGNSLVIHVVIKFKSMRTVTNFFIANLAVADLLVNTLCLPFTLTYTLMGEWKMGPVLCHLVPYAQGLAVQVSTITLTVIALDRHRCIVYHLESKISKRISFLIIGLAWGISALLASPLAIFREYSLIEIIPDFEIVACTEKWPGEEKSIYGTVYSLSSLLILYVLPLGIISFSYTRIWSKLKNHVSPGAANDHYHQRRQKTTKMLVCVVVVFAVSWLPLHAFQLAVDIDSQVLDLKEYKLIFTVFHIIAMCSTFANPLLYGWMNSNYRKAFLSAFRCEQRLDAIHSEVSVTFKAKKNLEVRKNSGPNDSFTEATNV
The assay is described as follows: RLB: displacement of 125I-PYY(1-36) from hNPY2R membranes. In general terms: Loss of bound radioactivity is the signal in a displacement assay; it reports binding, not function.
B1: the inhibition constant Ki (usually the equilibrium dissociation constant of an inhibitor or competing ligand from its target) was 2.65 nM.

B2 displayed an inhibition constant Ki of 1.61 nM.

With B3, the affinity corresponds to a Ki of 6.91 nM.

In turn, B4 yielded a Ki of 4.33 nM.

The molecule B5 registered a Ki of 0.58 nM.

The molecule B6 returned a Ki of 22.4 nM. This Ki is about 39-fold higher than that of the molecule before.
